Experimental data taken from the Human Domainome abundance scans (Beltran et al. 2025).
± gives the uncertainty stated by the source.

B1: Ankyrin repeat and SAM domain-containing protein 6, residues 774 to 836; numbered along this chain, Q68DC2 (parent)
chain: DEDELTGILKKLSLEKYQPIFEEQEVDMEAFLTLTDGDLKELGIKTDGSRQQILAAISELNAG

Variants of: B1
Test: abundance fitness (aPCA) (normalised: wild type 0, dead -1); higher = more abundant; growth selection in yeast, the domain comes from the species named
Details: Homo sapiens
DEDELTGILKKLSLEKYQPIFEEQEVDMEAFLTLTDGDLNELGIKTDGSRQQILAAISELNAG [K40N] showed an abundance fitness of -0.146 ± 0.1. DEDELTGILKKLSLEKYQPIFEEQEVDMEAFLTLTDGDLLELGIKTDGSRQQILAAISELNAG [K40L] showed an abundance fitness of -0.036 ± 0.037. DEDELTGILKKLSLEKYQPIFEEQEVDMEAFLTLTDGDLPELGIKTDGSRQQILAAISELNAG [K40P] showed an abundance fitness of -0.67 ± 0.049. For DEDELTGILKKLSLEKYQPIFEEQEVDMEAFLTLTDGDLGELGIKTDGSRQQILAAISELNAG [K40G], the abundance fitness was -0.31 ± 0.057. DEDELTGILKKLSLEKYQPIFEEQEVDMEAFLTLTDGDLYELGIKTDGSRQQILAAISELNAG [K40Y] gave an abundance fitness of -0.115 ± 0.061. In the case of DEDELTGILKKLSLEKYQPIFEEQEVDMEAFLTLTDGDLDELGIKTDGSRQQILAAISELNAG [K40D], the abundance fitness is reported as -0.084 ± 0.063. In the case of DEDELTGILKKLSLEKYQPIFEEQEVDMEAFLTLTDGDLAELGIKTDGSRQQILAAISELNAG [K40A], the abundance fitness is reported as -0.121 ± 0.044. Variant DEDELTGILKKLSLEKYQPIFEEQEVDMEAFLTLTDGDLTELGIKTDGSRQQILAAISELNAG [K40T] has an abundance fitness of -0.138 ± 0.068. DEDELTGILKKLSLEKYQPIFEEQEVDMEAFLTLTDGDLHELGIKTDGSRQQILAAISELNAG [K40H] gave an abundance fitness of -0.286 ± 0.074. DEDELTGILKKLSLEKYQPIFEEQEVDMEAFLTLTDGDLSELGIKTDGSRQQILAAISELNAG [K40S] gave an abundance fitness of -0.096 ± 0.052. Work on DEDELTGILKKLSLEKYQPIFEEQEVDMEAFLTLTDGDLFELGIKTDGSRQQILAAISELNAG [K40F] yielded an abundance fitness of -0.326 ± 0.052. Work on DEDELTGILKKLSLEKYQPIFEEQEVDMEAFLTLTDGDLCELGIKTDGSRQQILAAISELNAG [K40C] yielded an abundance fitness of -0.215 ± 0.11. In the case of DEDELTGILKKLSLEKYQPIFEEQEVDMEAFLTLTDGDLEELGIKTDGSRQQILAAISELNAG [K40E], the abundance fitness is reported as -0.041 ± 0.077. For DEDELTGILKKLSLEKYQPIFEEQEVDMEAFLTLTDGDLWELGIKTDGSRQQILAAISELNAG [K40W], the abundance fitness was -0.263 ± 0.046. Variant DEDELTGILKKLSLEKYQPIFEEQEVDMEAFLTLTDGDLQELGIKTDGSRQQILAAISELNAG [K40Q] has an abundance fitness of -0.142 ± 0.096. For DEDELTGILKKLSLEKYQPIFEEQEVDMEAFLTLTDGDLVELGIKTDGSRQQILAAISELNAG [K40V], the abundance fitness was 0.044 ± 0.05. Variant DEDELTGILKKLSLEKYQPIFEEQEVDMEAFLTLTDGVLKELGIKTDGSRQQILAAISELNAG [D38V] has an abundance fitness of -1.06 ± 0.084. For DEDELTGILKKLSLEKYQPIFEEQEVDMEAFLTLTDGYLKELGIKTDGSRQQILAAISELNAG [D38Y], the abundance fitness was -1.11 ± 0.15. In the case of DEDELTGILKKLSLEKYQPIFEEQEVDMEAFLTLTDGWLKELGIKTDGSRQQILAAISELNAG [D38W], the abundance fitness is reported as -0.965 ± 0.087. For DEDELTGILKKLSLEKYQPIFEEQEVDMEAFLTLTDGDTKELGIKTDGSRQQILAAISELNAG [L39T], the abundance fitness was -0.667 ± 0.072. In the case of DEDELTGILKKLSLEKYQPIFEEQEVDMEAFLTLTDGDRKELGIKTDGSRQQILAAISELNAG [L39R], the abundance fitness is reported as -0.599 ± 0.048. Work on DEDELTGILKKLSLEKYQPIFEEQEVDMEAFLTLTDGDCKELGIKTDGSRQQILAAISELNAG [L39C] yielded an abundance fitness of -0.662 ± 0.088. With DEDELTGILKKLSLEKYQPIFEEQEVDMEAFLTLTDGDAKELGIKTDGSRQQILAAISELNAG [L39A] the abundance fitness was -0.59 ± 0.06. In the case of DEDELTGILKKLSLEKYQPIFEEQEVDMEAFLTLTDGDSKELGIKTDGSRQQILAAISELNAG [L39S], the abundance fitness is reported as -0.683 ± 0.051. Work on DEDELTGILKKLSLEKYQPIFEEQEVDMEAFLTLTDGDNKELGIKTDGSRQQILAAISELNAG [L39N] yielded an abundance fitness of -0.514 ± 0.071. With DEDELTGILKKLSLEKYQPIFEEQEVDMEAFLTLTDGDMKELGIKTDGSRQQILAAISELNAG [L39M] the abundance fitness was -0.437 ± 0.095. With DEDELTGILKKLSLEKYQPIFEEQEVDMEAFLTLTDGDKKELGIKTDGSRQQILAAISELNAG [L39K] the abundance fitness was -0.912 ± 0.13. DEDELTGILKKLSLEKYQPIFEEQEVDMEAFLTLTDGDWKELGIKTDGSRQQILAAISELNAG [L39W] showed an abundance fitness of -1 ± 0.063. Variant DEDELTGILKKLSLEKYQPIFEEQEVDMEAFLTLTDGDEKELGIKTDGSRQQILAAISELNAG [L39E] has an abundance fitness of -0.625 ± 0.071. With DEDELTGILKKLSLEKYQPIFEEQEVDMEAFLTLTDGDDKELGIKTDGSRQQILAAISELNAG [L39D] the abundance fitness was -0.499 ± 0.11. Work on DEDELTGILKKLSLEKYQPIFEEQEVDMEAFLTLTDGDGKELGIKTDGSRQQILAAISELNAG [L39G] yielded an abundance fitness of -0.699 ± 0.052. For DEDELTGILKKLSLEKYQPIFEEQEVDMEAFLTLTDGDQKELGIKTDGSRQQILAAISELNAG [L39Q], the abundance fitness was -0.605 ± 0.072. For DEDELTGILKKLSLEKYQPIFEEQEVDMEAFLTLTDGDFKELGIKTDGSRQQILAAISELNAG [L39F], the abundance fitness was -0.616 ± 0.075. Variant DEDELTGILKKLSLEKYQPIFEEQEVDMEAFLTLTDGDPKELGIKTDGSRQQILAAISELNAG [L39P] has an abundance fitness of -0.747 ± 0.067. Variant DEDELTGILKKLSLEKYQPIFEEQEVDMEAFLTLTDGDVKELGIKTDGSRQQILAAISELNAG [L39V] has an abundance fitness of -0.57 ± 0.043. In the case of DEDELTGILKKLSLEKYQPIFEEQEVDMEAFLTLTDGDHKELGIKTDGSRQQILAAISELNAG [L39H], the abundance fitness is reported as -0.751 ± 0.16. With DEDELTGILKKLSLEKYQPIFEEQEVDMEAFLTLTDGDYKELGIKTDGSRQQILAAISELNAG [L39Y] the abundance fitness was -0.673 ± 0.089. DEDELTGILKKLSLEKYQPIFEEQEVDMEAFLTLTDGDLKELRIKTDGSRQQILAAISELNAG [G43R] gave an abundance fitness of -0.616 ± 0.054. For DEDELTGILKKLSLEKYQPIFEEQEVDMEAFLTLTDGDLKELYIKTDGSRQQILAAISELNAG [G43Y], the abundance fitness was -1.22 ± 0.26. For DEDELTGILKKLSLEKYQPIFEEQEVDMEAFLTLTDGDLKELTIKTDGSRQQILAAISELNAG [G43T], the abundance fitness was -0.675 ± 0.081. For DEDELTGILKKLSLEKYQPIFEEQEVDMEAFLTLTDGDLKELKIKTDGSRQQILAAISELNAG [G43K], the abundance fitness was -0.326 ± 0.091. DEDELTGILKKLSLEKYQPIFEEQEVDMEAFLTLTDGDLKELLIKTDGSRQQILAAISELNAG [G43L] showed an abundance fitness of -0.655 ± 0.047.
